Measured values taken from patent publication US20230203469A1.

Legend:
Test in all cases: cell-based or functional assay
FRETS-VWF73 substrate = FRETS-VWF73 substrate (UniProt P04275)
[1] = target: recombinant VWF (full-length, multimeric rVWF) (UniProt P04275)
[2] = target: von Willebrand factor (VWF), substrate of the in vitro cleavage of Table 1 (UniProt P04275)

Question: What does the source list for “rADAMTS13 batches composed of a mixture of wildtype rADAMTS13 and Q97R variant”?
Answer: specific activity U/mg (UV); Sample 1, 59 % Q97R (FRETS-VWF73 substrate): 1640 U/mg (UV); specific activity U/mg (UV); Sample 2, 64 % Q97R (FRETS-VWF73 substrate): 1580 U/mg (UV); specific activity U/mg (UV); Sample 3, 59 % Q97R (FRETS-VWF73 substrate): 1400 U/mg (UV); specific activity U/mg (UV); Sample 4, 56 % Q97R (FRETS-VWF73 substrate): 1460 U/mg (UV); specific activity U/mg (UV); Sample 5, 55 % Q97R (FRETS-VWF73 substrate): 1360 U/mg (UV); specific activity U/mg (UV); Sample 6, 64 % Q97R (FRETS-VWF73 substrate): 1470 U/mg (UV); specific activity U/mg (UV); Sample 7, 66 % Q97R (FRETS-VWF73 substrate): 2040 U/mg (UV); specific activity U/mg (UV); Sample 8, 70 % Q97R (FRETS-VWF73 substrate): 1610 U/mg (UV); specific activity U/mg (UV); Sample 9, 67 % Q97R (FRETS-VWF73 substrate): 1480 U/mg (UV); specific activity U/mg (UV); Sample 10, 67 % Q97R (FRETS-VWF73 substrate): 1450 U/mg (UV); specific activity U/mg (UV); Sample 11, 60 % Q97R (FRETS-VWF73 substrate): 1580 U/mg (UV); specific activity U/mg (UV); Sample 12, 60 % Q97R (FRETS-VWF73 substrate): 1620 U/mg (UV); specific activity U/mg (UV); Sample 13, 71 % Q97R (FRETS-VWF73 substrate): 1970 U/mg (UV); specific activity U/mg (UV); Sample 14, 59 % Q97R (FRETS-VWF73 substrate): 1390 U/mg (UV); specific activity U/mg (UV); Sample 15, 52 % Q97R (FRETS-VWF73 substrate): 1330 U/mg (UV); specific activity U/mg (UV); Sample 16, 57 % Q97R (FRETS-VWF73 substrate): 1410 U/mg (UV); specific activity U/mg (UV); Sample 17, 61 % Q97R (FRETS-VWF73 substrate): 1380 U/mg (UV); specific activity U/mg (UV); Sample 18, 63 % Q97R (FRETS-VWF73 substrate): 1440 U/mg (UV); specific activity U/mg (UV); Sample 19, 54 % Q97R (FRETS-VWF73 substrate): 1660 U/mg (UV); specific activity U/mg (UV); Sample 20, 64 % Q97R (FRETS-VWF73 substrate): 1700 U/mg (UV); specific activity U/mg (UV); Sample 21, 64 % Q97R (FRETS-VWF73 substrate): 1690 U/mg (UV); specific activity U/mg (UV); Sample 22, 66 % Q97R (FRETS-VWF73 substrate): 1620 U/mg (UV); specific activity U/mg (UV); Sample 23, 61 % Q97R (FRETS-VWF73 substrate): 1540 U/mg (UV); specific activity U/mg (UV); Sample 24, 62 % Q97R (FRETS-VWF73 substrate): 1510 U/mg (UV); specific activity U/mg (UV); Sample 25, 61 % Q97R (FRETS-VWF73 substrate): 1530 U/mg (UV); specific activity U/mg (UV); Sample 26, 61 % Q97R (FRETS-VWF73 substrate): 1760 U/mg (UV); specific activity U/mg (UV); Sample 27, 59 % Q97R (FRETS-VWF73 substrate): 1860 U/mg (UV); specific activity U/mg (UV); Sample 28, 60 % Q97R (FRETS-VWF73 substrate): 1750 U/mg (UV); specific activity U/mg (UV); Sample 29, 55 % Q97R (FRETS-VWF73 substrate): 1730 U/mg (UV); specific activity U/mg (UV); Sample 30, 60 % Q97R (FRETS-VWF73 substrate): 1850 U/mg (UV); specific activity U/mg (UV); Sample 31, 64 % Q97R (FRETS-VWF73 substrate): 1800 U/mg (UV); specific activity U/mg (UV); Sample 32, 60 % Q97R (FRETS-VWF73 substrate): 1750 U/mg (UV); specific activity U/mg (UV); Sample 33, 65 % Q97R (FRETS-VWF73 substrate): 1620 U/mg (UV); specific activity U/mg (UV); Sample 34, 61 % Q97R (FRETS-VWF73 substrate): 1720 U/mg (UV); specific activity U/mg (UV); Sample 35, 72 % Q97R (FRETS-VWF73 substrate): 1650 U/mg (UV); cleavage of multimeric rVWF [%]; Sample 1, 59 % Q97R [1]: 58%; cleavage of multimeric rVWF [%]; Sample 2, 64 % Q97R [1]: 52%; cleavage of multimeric rVWF [%]; Sample 3, 59 % Q97R [1]: 51%; cleavage of multimeric rVWF [%]; Sample 4, 56 % Q97R [1]: 60%; cleavage of multimeric rVWF [%]; Sample 5, 55 % Q97R [1]: 52%; cleavage of multimeric rVWF [%]; Sample 6, 64 % Q97R [1]: 57%; cleavage of multimeric rVWF [%]; Sample 7, 66 % Q97R [1]: 62%; cleavage of multimeric rVWF [%]; Sample 9, 67 % Q97R [1]: 62%; cleavage of multimeric rVWF [%]; Sample 10, 67 % Q97R [1]: 60%; cleavage of multimeric rVWF [%]; Sample 11, 60 % Q97R [1]: 61%; cleavage of multimeric rVWF [%]; Sample 12, 60 % Q97R [1]: 59%; cleavage of multimeric rVWF [%]; Sample 13, 71 % Q97R [1]: 60%; cleavage of multimeric rVWF [%]; Sample 14, 59 % Q97R [1]: 55%; cleavage of multimeric rVWF [%]; Sample 15, 52 % Q97R [1]: 59%; cleavage of multimeric rVWF [%]; Sample 16, 57 % Q97R [1]: 66%; cleavage of multimeric rVWF [%]; Sample 17, 61 % Q97R [1]: 58%; cleavage of multimeric rVWF [%]; Sample 18, 63 % Q97R [1]: 55%; cleavage of multimeric rVWF [%]; Sample 19, 54 % Q97R [1]: 78%; cleavage of multimeric rVWF [%]; Sample 20, 64 % Q97R [1]: 78%; cleavage of multimeric rVWF [%]; Sample 21, 64 % Q97R [1]: 75%; cleavage of multimeric rVWF [%]; Sample 22, 66 % Q97R [1]: 65%; cleavage of multimeric rVWF [%]; Sample 23, 61 % Q97R [1]: 66%; cleavage of multimeric rVWF [%]; Sample 24, 62 % Q97R [1]: 63%; cleavage of multimeric rVWF [%]; Sample 25, 61 % Q97R [1]: 63%; cleavage of multimeric rVWF [%]; Sample 26, 61 % Q97R [1]: 67%; cleavage of multimeric rVWF [%]; Sample 27, 59 % Q97R [1]: 67%; cleavage of multimeric rVWF [%]; Sample 28, 60 % Q97R [1]: 67%; cleavage of multimeric rVWF [%]; Sample 29, 55 % Q97R [1]: 68%; cleavage of multimeric rVWF [%]; Sample 30, 60 % Q97R [1]: 67%; cleavage of multimeric rVWF [%]; Sample 31, 64 % Q97R [1]: 71%; cleavage of multimeric rVWF [%]; Sample 32, 60 % Q97R [1]: 62%; cleavage of multimeric rVWF [%]; Sample 33, 65 % Q97R [1]: 78%; cleavage of multimeric rVWF [%]; Sample 34, 61 % Q97R [1]: 65%; cleavage of multimeric rVWF [%]; Sample 35, 72 % Q97R [1]: 66%; IU VWF RCo/ml left; ADAMTS13 0.1 U/ml, 0 h (IU VWF RCo/ml) [2]: 0.72; IU VWF RCo/ml left; ADAMTS13 0.1 U/ml, 15 seconds (IU VWF RCo/ml) [2]: 0.33; IU VWF RCo/ml left; ADAMTS13 0.1 U/ml, 30 seconds (IU VWF RCo/ml) [2]: 0.34; IU VWF RCo/ml left; ADAMTS13 0.1 U/ml, 1 minute (IU VWF RCo/ml) [2]: 0.3; IU VWF RCo/ml left; ADAMTS13 0.1 U/ml, 2 minutes (IU VWF RCo/ml) [2]: 0.24; IU VWF RCo/ml left; ADAMTS13 0.1 U/ml, 5 minutes (IU VWF RCo/ml) [2]: < 0.17; IU VWF RCo/ml left; ADAMTS13 0.5 U/ml, 0 h (IU VWF RCo/ml) [2]: 0.78; IU VWF RCo/ml left; ADAMTS13 0.5 U/ml, 15 seconds (IU VWF RCo/ml) [2]: < 0.17; IU VWF RCo/ml left; ADAMTS13 0.5 U/ml, 30 seconds (IU VWF RCo/ml) [2]: < 0.17; IU VWF RCo/ml left; ADAMTS13 0.5 U/ml, 1 minute (IU VWF RCo/ml) [2]: < 0.17; IU VWF RCo/ml left; ADAMTS13 0.5 U/ml, 2 minutes (IU VWF RCo/ml) [2]: < 0.17; IU VWF RCo/ml left; ADAMTS13 0.5 U/ml, 5 minutes (IU VWF RCo/ml) [2]: < 0.17; IU VWF RCo/ml left; ADAMTS13 1.0 U/ml, 0 h (IU VWF RCo/ml) [2]: 0.56; IU VWF RCo/ml left; ADAMTS13 1.0 U/ml, 15 seconds (IU VWF RCo/ml) [2]: < 0.17; IU VWF RCo/ml left; ADAMTS13 1.0 U/ml, 30 seconds (IU VWF RCo/ml) [2]: < 0.17; IU VWF RCo/ml left; ADAMTS13 1.0 U/ml, 1 minute (IU VWF RCo/ml) [2]: < 0.17; IU VWF RCo/ml left; ADAMTS13 1.0 U/ml, 2 minutes (IU VWF RCo/ml) [2]: < 0.17; IU VWF RCo/ml left; ADAMTS13 1.0 U/ml, 5 minutes (IU VWF RCo/ml) [2]: < 0.17
